Laboratory results taken from US20070224194A1, “Methods for Inhibiting Angiogenesis and/or Lymphangiogenesis” (LUDWIG INSTITUTE FOR CANCER RESEARCH, priority 2004, published 2007).
Residue numbers refer to the chain shown, from its start. Values belong to the molecule of their own block, whether it stands above or below them.

Assays:
[1] = target: VEGFR-3 (as used in the biosensor analysis) (UniProt P35916); test: SPR; conditions: ligand
[2] = target: VEGFR-2 (as used in the biosensor analysis) (UniProt P35968); test: SPR; conditions: ligand
[3] = target: VEGFR-3 (as used in the biosensor analysis) (UniProt P35916); test: SPR biosensor, 1:1 Langmuir model; reference VEGF-DSSTS.IISS on the same receptor
[4] = target: VEGFR-2 (as used in the biosensor analysis) (UniProt P35968); test: as above
[5] = target: T1, VEGFR-1-Ig (human, UniProt P17948 27-758); test: pull-down with receptor-Ig on protein-A sepharose from LoVo conditioned medium, Western blot
T1 construct: extracellular domain; R&D Systems is named as its source; used as a negative control; also called soluble fusion protein of the extracellular domain of human VEGFR-1 and the Fc portion of human IgG; not shown: Fc portion of human IgG
Description: (§1) Binding to receptor extracellular domains was examined using soluble fusion proteins consisting of the extracellular domains of human VEGFR-1, VEGFR-2 or VEGFR-3 joined to the Fe portions of human IgG (referred to as VEGFR-1-Ig (R&D Systems), VEGFR-2-Ig and VEGFR-3-Ig) (Achen et al, Proc. Natl. Acad. Sci. USA 95 548-553, 1998). Protein-A sepharose beads were incubated overnight with the conditioned media of 293EBNA cells expressing VEGFR-1-Ig, VEGFR-2-Ig or VEGFR-3-Ig to precipitate the soluble receptor constructs. The soluble receptors bound to protein-A sepharose beads were recovered by centrifugation (5 minutes, 250×g, 4° C.) and washed twice with binding buffer (0.5% (w/v) BSA, 0.02% (v/v) Tween 20, 10 μg/ml heparin in phosphate buffered saline). The soluble receptors bound to protein-A sepharose beads were then incubated with the conditioned media of LoVo cells, that had been co-transfected with pVDAPEX FULL-N-FLAG and pcDNA3:furin, for three hours at room temperature, and washed twice with binding buffer. Proteins bound to the VEGFR-2-Ig and VEGFR-3-Ig constructs were analysed by reducing SDS-PAGE and Western blotting with a biotinylated antibody against the VHD of human VEGF-D (R&D Systems), followed by Streptavidin-horse radish peroxidase conjugate (Zymed).

[6] = target: T2, extracellular domain of human VEGFR-3 (VEGFR-3-Ig) (Homo sapiens, UniProt P35916); test: Precipitation with soluble receptor VEGFR-3-Ig from LoVo conditioned media; format: binding; conditions: conditioned media of LoVo cells co-transfected with VEGF-D-FULL-N-FLAG and furin
T2 construct: soluble fusion proteins consisting of the extracellular domains of human VEGFR-1, VEGFR-2 or VEGFR-3; made in house; host or cells: 293EBNA cells (conditioned media, captured on protein-A sepharose)
T2 sequence (P35916 25-775 limits assumed): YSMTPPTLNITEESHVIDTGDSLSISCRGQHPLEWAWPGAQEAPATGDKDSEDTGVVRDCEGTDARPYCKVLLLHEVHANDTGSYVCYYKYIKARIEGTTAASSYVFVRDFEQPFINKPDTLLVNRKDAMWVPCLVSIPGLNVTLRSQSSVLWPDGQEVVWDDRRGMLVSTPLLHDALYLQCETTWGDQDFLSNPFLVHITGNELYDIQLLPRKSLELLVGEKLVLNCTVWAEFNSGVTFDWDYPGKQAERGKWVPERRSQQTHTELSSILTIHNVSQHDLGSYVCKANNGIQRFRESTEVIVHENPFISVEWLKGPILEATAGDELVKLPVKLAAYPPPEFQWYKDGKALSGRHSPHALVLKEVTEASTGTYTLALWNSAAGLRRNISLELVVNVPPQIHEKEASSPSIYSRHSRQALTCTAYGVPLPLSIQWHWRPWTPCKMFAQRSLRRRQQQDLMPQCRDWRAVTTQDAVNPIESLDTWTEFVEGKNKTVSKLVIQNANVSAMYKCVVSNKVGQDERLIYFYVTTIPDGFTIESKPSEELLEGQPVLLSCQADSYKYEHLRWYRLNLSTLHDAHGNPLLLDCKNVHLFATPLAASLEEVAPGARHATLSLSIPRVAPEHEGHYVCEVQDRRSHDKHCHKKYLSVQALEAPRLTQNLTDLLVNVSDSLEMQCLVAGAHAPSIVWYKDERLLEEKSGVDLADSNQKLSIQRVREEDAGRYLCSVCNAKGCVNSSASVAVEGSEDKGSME
Description: as §1

[7] = target: T3, extracellular domain of human VEGFR-2 (VEGFR-2-Ig) (Homo sapiens, UniProt P35968); test: Precipitation with soluble receptor VEGFR-2-Ig from LoVo conditioned media; format: binding; conditions: conditioned media of LoVo cells co-transfected with VEGF-D-FULL-N-FLAG and furin
T3 construct: soluble fusion proteins consisting of the extracellular domains of human VEGFR-1, VEGFR-2 or VEGFR-3; made in house; host or cells: 293EBNA cells (conditioned media, captured on protein-A sepharose)
Description: as §1

[8] = tested on: furin; test: Knockdown of furin protein by shRNA (co-transfection of shRNA and furin expression constructs); format: cell-based, human
Description: Short hairpin RNA (shRNA) primers targeting furin RNA were designed using an in-house primer design algorithm. These primer pairs form the shRNA structure that then results in functional siRNA targeting sequences 457-476 and 558-575 of open reading frame of human furin sequence (Genbank Accession No. NM_002569.2, SEQ ID NO: 21). The underlined sections are structural motifs for the formation of the small hairpin RNA structure and for the ligation of the annealed primers to the parental vector. In bold the 5′-3′ upper strand of the target sequence which is naturally a part of the primer sequence.
The above shRNA primers were generated to target the sequences 5′-GACGATGGCATCGAGAAGAA-3′ (SEQ ID NO: 19) and 5′-ACA CAC AGA TGA ATG ACA A-3′ (SEQ ID NO: 20). Primers were annealed by heating a mix of 60 pM of both primers in 50 μl annealing buffer (0.1 M potassium acetate, 2 mM magnesium acetate, 30 mM HEPES pH 7.4) at 94° C. for 4 min then 70° C. for 10 min and allowed to cool to room temperature. Annealing was verified in 3% low melting point agarose gel. The shRNA construct was then ligated into pMSCVpac mU6 which is a derivative of pMSCV (Clontech). The shRNAs were validated by assessing reduction of furin protein levels resulting from co-transfections of shRNA and furin expression constructs in 293EBNA cells or other cell lines stably overexpressing furin.

[9] = target: VEGFR-2 (as used in the biosensor analysis) (UniProt P35968); test: SPR biosensor, 1:1 Langmuir model; reference VEGF-DSSTS.IISS on the same receptor; the preparation held traces of processed forms
[10] = target: T4, VEGFR-3 (as used in the biosensor analysis) (UniProt P35916 25-775); test: SPR
T4 chain: T2 sequence (P35916 25-775 limits assumed)

[11] = target: T5, VEGFR-2 (as used in the biosensor analysis) (UniProt P35968 20-764); test: SPR
T5 chain: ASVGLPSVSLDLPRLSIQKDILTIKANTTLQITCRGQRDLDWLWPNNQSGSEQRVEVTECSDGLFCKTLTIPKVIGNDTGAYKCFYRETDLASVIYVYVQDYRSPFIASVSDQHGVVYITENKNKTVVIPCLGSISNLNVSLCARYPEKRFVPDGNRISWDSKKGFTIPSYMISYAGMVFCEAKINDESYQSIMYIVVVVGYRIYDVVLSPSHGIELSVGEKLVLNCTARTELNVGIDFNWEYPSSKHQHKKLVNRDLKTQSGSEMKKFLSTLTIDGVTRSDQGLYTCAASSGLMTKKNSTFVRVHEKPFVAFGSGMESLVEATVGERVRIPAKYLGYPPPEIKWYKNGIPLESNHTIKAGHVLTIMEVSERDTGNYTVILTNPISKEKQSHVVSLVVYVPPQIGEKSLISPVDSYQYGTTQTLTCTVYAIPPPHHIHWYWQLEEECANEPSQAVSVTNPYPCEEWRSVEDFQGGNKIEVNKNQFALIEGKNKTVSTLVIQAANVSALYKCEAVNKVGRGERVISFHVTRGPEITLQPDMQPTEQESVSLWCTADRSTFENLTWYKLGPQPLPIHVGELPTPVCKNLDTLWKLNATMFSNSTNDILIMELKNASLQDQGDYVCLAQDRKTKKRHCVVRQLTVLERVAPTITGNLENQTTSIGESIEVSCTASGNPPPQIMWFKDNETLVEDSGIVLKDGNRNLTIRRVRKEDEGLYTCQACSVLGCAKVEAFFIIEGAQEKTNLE

[12] = target: VEGFR-2 (Homo sapiens, UniProt P35968); test: Biosensor analysis (surface plasmon resonance) of VEGF-D ligands on VEGFR-2; format: binding; conditions: 1:1 Langmurian model
Description: To determine the relative affinities of the ligands VEGF-DSSTS.IISS, VEGF-D-FULL-N-FLAG and mature VEGF-D (designated VEGF-DΔNΔC) for VEGFR-2 and VEGFR-3, the relative binding kinetics for these interactions was analyzed by biosensor analysis using surface plasmon resonance detection (Nice et al., Bioessays, 21:339-352, 1999). The preparations of VEGF-DSSTS.IISS and VEGF-DΔNΔC used for this analysis each consisted of one VEGF-D species devoid of other forms of VEGF-D but the preparation of VEGF-D-FULL-N-FLAG did contain traces of partially processed as well as full-length material, reflecting the capacity of wild-type full-length VEGF-D to be proteolytically processed in the 293EBNA cell cultures) from which these proteins were purified (see FIG. 10B). The binding constants for the interactions were obtained by analysis of the initial dissociation phase to obtain the kd, which was then used to constrain a global analysis of the association region of the curves, using regions of the curves where a 1:1 Langmurian model appeared to be operative.

Sequence of VEGFR-2 (P35968 20-1356): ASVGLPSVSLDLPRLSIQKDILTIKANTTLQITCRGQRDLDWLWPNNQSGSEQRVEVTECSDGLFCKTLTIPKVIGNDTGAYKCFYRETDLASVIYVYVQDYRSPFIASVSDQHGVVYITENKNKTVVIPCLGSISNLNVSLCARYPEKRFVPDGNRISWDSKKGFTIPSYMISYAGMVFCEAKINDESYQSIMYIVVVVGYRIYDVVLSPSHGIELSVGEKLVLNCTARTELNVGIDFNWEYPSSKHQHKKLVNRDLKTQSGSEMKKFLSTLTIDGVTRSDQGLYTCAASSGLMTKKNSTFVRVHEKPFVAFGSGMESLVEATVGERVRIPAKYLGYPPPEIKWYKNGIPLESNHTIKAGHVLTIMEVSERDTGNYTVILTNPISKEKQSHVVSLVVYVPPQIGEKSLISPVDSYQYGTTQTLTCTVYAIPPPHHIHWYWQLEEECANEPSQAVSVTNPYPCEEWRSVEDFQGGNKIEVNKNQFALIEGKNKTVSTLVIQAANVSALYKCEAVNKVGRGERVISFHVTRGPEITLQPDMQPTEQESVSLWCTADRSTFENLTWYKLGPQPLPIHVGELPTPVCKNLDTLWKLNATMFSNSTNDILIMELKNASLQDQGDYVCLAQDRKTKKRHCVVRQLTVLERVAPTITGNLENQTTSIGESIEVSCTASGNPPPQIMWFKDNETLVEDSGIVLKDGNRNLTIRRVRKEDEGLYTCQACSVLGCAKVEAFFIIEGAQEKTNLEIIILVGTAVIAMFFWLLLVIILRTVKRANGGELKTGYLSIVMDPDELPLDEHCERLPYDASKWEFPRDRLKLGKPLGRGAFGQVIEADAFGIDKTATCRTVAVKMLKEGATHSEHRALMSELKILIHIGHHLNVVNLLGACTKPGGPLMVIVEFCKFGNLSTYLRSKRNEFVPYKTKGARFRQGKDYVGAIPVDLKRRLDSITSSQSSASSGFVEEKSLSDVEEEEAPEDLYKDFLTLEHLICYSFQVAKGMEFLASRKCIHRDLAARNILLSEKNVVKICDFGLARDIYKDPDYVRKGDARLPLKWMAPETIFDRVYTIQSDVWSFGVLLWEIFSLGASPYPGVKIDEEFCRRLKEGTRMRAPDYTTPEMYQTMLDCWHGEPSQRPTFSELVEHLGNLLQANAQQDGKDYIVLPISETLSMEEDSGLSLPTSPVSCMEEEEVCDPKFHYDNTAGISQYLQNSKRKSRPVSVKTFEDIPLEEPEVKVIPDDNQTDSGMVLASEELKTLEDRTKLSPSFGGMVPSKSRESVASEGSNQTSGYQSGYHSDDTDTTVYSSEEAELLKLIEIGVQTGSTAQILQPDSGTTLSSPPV
T1 sequence (P17948 27-758): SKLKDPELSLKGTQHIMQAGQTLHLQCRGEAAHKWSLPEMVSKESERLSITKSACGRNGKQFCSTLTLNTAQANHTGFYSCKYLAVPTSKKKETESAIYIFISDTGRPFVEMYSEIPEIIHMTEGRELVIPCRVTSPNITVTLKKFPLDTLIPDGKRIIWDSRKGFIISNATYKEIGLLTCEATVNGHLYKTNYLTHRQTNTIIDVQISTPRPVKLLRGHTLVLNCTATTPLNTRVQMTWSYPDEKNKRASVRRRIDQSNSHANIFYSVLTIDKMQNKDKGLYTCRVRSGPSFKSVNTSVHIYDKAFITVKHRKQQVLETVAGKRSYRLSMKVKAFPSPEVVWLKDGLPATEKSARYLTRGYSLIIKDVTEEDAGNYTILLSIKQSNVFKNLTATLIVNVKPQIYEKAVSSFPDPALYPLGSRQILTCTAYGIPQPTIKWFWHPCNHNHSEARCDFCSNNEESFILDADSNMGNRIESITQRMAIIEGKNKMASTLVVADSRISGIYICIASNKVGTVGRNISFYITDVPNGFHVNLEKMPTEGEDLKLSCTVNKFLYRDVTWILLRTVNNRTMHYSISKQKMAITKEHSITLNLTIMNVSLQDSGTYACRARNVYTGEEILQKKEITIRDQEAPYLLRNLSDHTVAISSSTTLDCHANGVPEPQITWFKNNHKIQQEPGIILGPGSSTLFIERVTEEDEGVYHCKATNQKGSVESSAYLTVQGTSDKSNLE

Kd [1]: 44 nM
Kd [2]: 8.7 nM
Molecule: mature VEGF-D (designated VEGF-DΔNΔC) (from UniProt O43915 93-201)

fold greater affinity than VEGF-DSSTS.IISS [3]: 18 fold
fold greater apparent affinity than VEGF-DSSTS.IISS [4]: 17000 fold
Molecule: mature VEGF-D (designated VEGF-DΔNΔC) (from UniProt O43915 93-201) (ligand)

binding result [5]: no binding
B1: mature form of VEGF-D generated by furin (ligand, human, UniProt O43915 89-205, looked up)
chain: FAATFYDIETLKVIDEEWQRTQCSPRETCVEVASELGKSTNTFFKPPCVNVFRCGGCCNEESLICMNTSTSYISKQLFEISVPLTSVPELVPVKVANHTGCKCLPTAPRHPYSIIRR
notes: range 89-205; Present in conditioned medium of LoVo cells co-transfected with pVDAPEX FULL-N-FLAG and pcDNA3:furin; not purified; also called ˜21 kDa VEGF-D species; mature VEGF-D

binding to the extracellular domain of VEGFR-3 [6]: binds
binding to the extracellular domain of VEGFR-2 [7]: binds
B2: mature form of VEGF-D generated by furin: ~21 kDa VEGF-D species from LoVo cells co-transfected with VEGF-D-FULL-N-FLAG and furin expression constructs (protein)
chain: B1 chain

B3: First primer pair: shRNA primer pair (SEQ ID NO:15 and 16) targeting bases 457-476 of human furin (nucleic acid)
chain 1: GACGATGGCATCGAGAAGAATTCAAGAGATTCTTCTCGATGCCATCGTCTTTTTT
chain 2: AATTAAAAAAGACGATGGCATCGAGAAGAATCTCTTGAATTCTTCTCGATGCCATCGTC
knockdown of furin protein expression in vitro [8]: almost complete knockdown

B4: Second shRNA pair: shRNA primer pair (SEQ ID NO:17 and 18) targeting bases 558-575 of human furin (nucleic acid)
chain 1: CACACAGATGAATGACAATTCAAGAGATTGTCATTCATCTGTGTGTTTTTT
chain 2: AATTAAAAAACACACAGATGAATGACAATCTCTTGAATTGTCATTCATCTGTGTG
knockdown of protein expression in vitro [8]: 70-80%

fold greater affinity than VEGF-DSSTS.IISS [9]: 94 fold
Kd [10]: 490 nM
Kd [11]: 1600 nM
B5: VEGF-D-FULL-N-FLAG (full-length VEGF-D tagged with FLAG at the N-terminus) (ligand)
chain: NEHGPVKRSSQSTLERSEQQIRAASSLEELLRITHSEDWKLWRCRLRLKSFTSMDSRSASHRSTRFAATFYDIETLKVIDEEWQRTQCSPRETCVEVASELGKSTNTFFKPPCVNVFRCGGCCNEESLICMNTSTSYISKQLFEISVPLTSVPELVPVKVANHTGCKCLPTAPRHPYSIIRRSIQIPEEDRCSHSKKLCPIDMLWDSNKCKCVLQEENPLAGTEDHSHLQEPALCGPHMMFDEDRCECVCKTPCPKDLIQHPKNCSCFECKESLETCCQKHKLFHPDTCSCEDRCPFHTRPCASGKTACAKHCRFPKEKRAAQGPHSRKNP

Kd [10]: 790 nM
Kd [11]: 150000 nM
B6: VEGF-DSSTS.IISS (ligand)
chain: B5 chain with R62S, R65S, R181S, R182S

apparent affinity for VEGFR-2 relative to unprocessed mutant VEGF-DSSTS.IISS [12]: ~94 fold
B7: VEGF-D-FULL-N-FLAG: full-length VEGF-D tagged with FLAG at the N-terminus; preparation contained traces of partially processed material (protein)
chain: B5 chain
modifications: left off: small tags and cut ends
notes: full-length VEGF-D tagged with FLAG at the N-terminus; preparation contained traces of partially processed material
